Literature values, collected in patent US20100247512A1, “Pericellular Collagenase Directs the 3-Dimensional Development of White Adipose Tissue” (The Regents of the University of Michigan, priority 2006, published 2010).
The star is where a group is joined. Decanoyl = CCCCCCCCCC(=O)*; CH2Cl = ClC*

Tests used:
MT1-MMP = MT1-MMP (Homo sapiens, UniProt P50281); conditions: Rosenthal, et al., 2005
pro-MT1-MMP = conditions: Rosenthal, et al., 2005

Substance | inhibition of MT1-MMP, blocking collagenolysis (MT1-MMP) | inhibition of intracellular conversion of pro-MT1-MMP to its active form (pro-MT1-MMP)
TIMP-1: member of the tissue inhibitors of metalloproteinases (TIMPs), a family of natural protein MMP inhibitors | poor inhibitor of MT1-MMP | 
deconyl-Arg-Val-Lys-Arg-CMK (Decanoyl-RVKR-CH2Cl) |  | inhibits the intracellular conversion of pro-MT1-MMP to its active form
